Laboratory results reported in paper PMC2794548, “Real-Time Imaging and Quantification of Amyloid-β Peptide Aggregates by Novel Quantum-Dot Nanoprobes” (PLoS ONE, 2009).

Legend:
[1] = Kinetic analysis of Aβ40 and Aβ42 aggregations by SDS-PAGE; format: physicochemical, Human; conditions: 50 µM peptide in PBS without SDS, 37°C
Description: These Aβ solutions were diluted at 50 µM in PBS with or without 1 mM SDS, and 5 µl of aliquots were incubated for various time periods at 37°C. The samples were mixed with sample buffer (final concentration: 50 mM Tris-HCl (pH 6.8), 2% SDS, 0.1% bromophenol blue, and 10% glycerol) and immediately electrophoresed using 16.5% Tris-Tricine gels or 16% Tris-Glycine gels. These gels were stained with Coomassie brilliant blue.
After the incubation, these samples were electrophoresed using 16.5% Tris-Tricine (a and c) and 16% Tris-Glycine gels (b and d). […] [1] Schagger H (2006) Tricine-SDS-PAGE. Nat Protoc 1: 16–22. Laemmli UK (1970) Cleavage of structural proteins during the assembly of the head of bacteriophage T4. Nature 227: 680–685. (1.27 MB TIF) Click here for additional data file.

[2] = target: Aβ42 (Homo sapiens, UniProt P05067); assay: Imaging of fibril formation: coaggregation of QDAβ with intact Aβ42, wide-field fluorescence microscopy; format: physicochemical; conditions: 0.1% QDAβ(6)-containing 50 µM Aβ42, 1 day on ice
Description: (b) Fluorescence intensities of the aggregates in (a). Fluorescence intensities measured from 20 randomly selected fields (100×100 pixel: 8.6×8.6 μm) containing the aggregates are shown as relative % intensity against QDAβ(6) group. *** denotes P<0.001 for QDAβ (6)- versus QDAβ (1)- or QDAβ (0)-samples and ## denotes 0.001<P<0.01 for QDAβ (1)- versus QDAβ (0) samples. Error bars indicate SD (n = 20). […], spread between glass slides and cover slips, and observed by regular microscopy using a 100x objective lens with QD filter set (left micrograph) and […] (right three micrographs). […] The right three micrographs are magnified and brightened micrographs. The top right micrograph is the boxed area in the left micrograph. […] To remove any aggregates, the mixtures were centrifuged at 10,000×g for 1 min at 4°C. The mixtures (50 μl) were put in microcentrifuge tubes or 96-well glass bottom plates (MatTek). […] Supplementary file pone.0008492.s006.tif: Figure S4 Dose- and time-dependent coaggregation. […] (7.12 MB TIF) Click here for additional data file. Supplementary file pone.0008492.s007.tif: Figure S5 Temperature-dependent Aβ aggregation. […] (1.67 MB TIF) Click here for additional data file.

[3] = 4D imaging of Aβ aggregation by swept-field confocal microscopy; format: physicochemical, Human
[4] = 10–35 µM Aβ42 in phosphate buffer (pH 7.5 or pH 7.4); cited from earlier work
[5] = 0.1% QDAβ(6)-containing 100 µM Aβ42, 37°C, imaged every 30 min over 20 h, three 4D experiments

Chain of Aβ42 (P05067 672-713 limits assumed): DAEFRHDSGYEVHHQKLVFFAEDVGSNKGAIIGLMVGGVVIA

Substance	oligomer formation after 5 days ([1]; SDS-PAGE (Fig. S1c, d))	time to formation of trimeric and tetrameric species from the start of incubation ([1]; SDS-PAGE, Coomassie (Fig. S1a))	aggregation after incubation on ice [2]	lag time of aggregation [3, 5]	time at which aggregation reached a plateau [3, 5]	density of stacked-Aβ aggregates on the glass bottom in a steady state ([3]; estimated from 4D imaging data, 100 µM Aβ42 with 0.1% QDAβ(6))	lag time of ThT binding [4]	time at which ThT binding reached a plateau [4]
Aβ40: Human amyloid peptide Aβ40 (Biosource)	did not form oligomers							
Aβ42: Human amyloid peptide Aβ42 (Biosource)		≤ 0.3 h	did not observe aggregation	approximately 1.5 h	around 12 h	32 ± 6 mg/mL	several minutes	1 to 2 h
